In patent publication US7144731B2, “SCF antibody compositions and methods of using the same” (Amgen Inc., priority 1989, dated 2006):

Tests used:
human c-kit (hckit-LT1) = target: T1, human c-kit (hckit-LT1) (Homo sapiens, UniProt P10721); assay: ^125I-SCF^1-164 binding to recombinant c-kit in COS-1 cells
T1 construct: expressed in transfected cells; host or cells: COS-1 cells transfected with V19.8 carrying c-kit cDNA cloned from HEL cells; membrane fractions used
Excerpt: (§1) To test whether SCF^1-164 is the ligand for c-kit, the cDNA for the entire murine c-kit [Qiu et al., EMBO J., 7, 1003–1011 (1988)] was amplified using PCR from the SCF^1-164 responsive mast cell line MC/9 [Nabel et al., Nature, 291, 332–334 (1981)] with primers designed from the published sequence. The ligand binding and transmembrane domains of human c-kit, encoded by amino acids 1–549 [Yarden et al., EMBO J., 6, 3341–3351 (1987)], were cloned using similar techniques from the human erythroleukemia cell line, HEL [Martin and Papayannopoulou, Science, 216, 1233–1235 (1982)]. The c-kit cDNAs were inserted into the mammalian expression vector V19.8 transfected into COS-1 cells, and membrane fractions prepared for binding assays using either rat or human ^125I-SCF^1-164 according to the methods described in Sections B and C below. […] There was no detectable specific binding of ^125I human SCF^1-164 to COS-1 cells transfected with V19.8 alone. However, COS-1 cells expressing human recombinant c-kit ligand binding plus transmembrane domains (hckit-LT1) did bind ^125I-hSCF^1-164 (Table 17). The addition of a 200 fold molar excess of unlabelled human SCF^1-164 reduced binding to background levels. Similarly, COS-1 cells transfected with the full length murine c-kit (mckit-L1) bound rat ^125I-SCF^1-164. […] This finding is in accord with the broad cellular distribution of c-kit expression. Rat ^125I-SCF^1-164 binds similarly to both human and murine c-kit, while human ^125I-SCF^1-164 bind with lower activity to murine c-kit (Table 17).
(§2) Human and murine c-kit cDNA clones were derived using PCR techniques [Saiki et al., Science, 239, 487–491 (1988)] from total RNA isolated by an acid phenol/chloroform extraction procedure [Chomczynsky and Sacchi, Anal. Biochem., 162, 156–159, (1987)] from the human erythroleukemia cell line HEL and MC/9 cells, respectively. Unique sequence oligonucleotides were designed from the published human and murine c-kit sequences. First strand cDNA was synthesized from the total RNA according to the protocol provided with the enzyme, Mo-MLV reverse transcription (Bethesda Research Laboratories, Bethesda, Md.), using c-kit antisense oligonucleotides as primers. Amplification of overlapping regions of the c-kit ligand binding and tyrosine kinase domains was accomplished using appropriate pairs of c-kit primers. These regions were cloned into the mammalian expression vector V19.8 (FIG. 17) for expression in COS-1 cells. […] A clone free of these mutations was constructed by reassembly of mutation-free restriction fragments from separate clones. […]

murine c-kit (mckit-L1) = target: T2, murine c-kit (mckit-L1) (Mus musculus, UniProt P05532); assay: as above
T2 construct: expressed in transfected cells; host or cells: COS-1 cells transfected with V19.8 carrying c-kit cDNA cloned from MC/9 mast cells; membrane fractions used
T2 sequence (P05532 25-979): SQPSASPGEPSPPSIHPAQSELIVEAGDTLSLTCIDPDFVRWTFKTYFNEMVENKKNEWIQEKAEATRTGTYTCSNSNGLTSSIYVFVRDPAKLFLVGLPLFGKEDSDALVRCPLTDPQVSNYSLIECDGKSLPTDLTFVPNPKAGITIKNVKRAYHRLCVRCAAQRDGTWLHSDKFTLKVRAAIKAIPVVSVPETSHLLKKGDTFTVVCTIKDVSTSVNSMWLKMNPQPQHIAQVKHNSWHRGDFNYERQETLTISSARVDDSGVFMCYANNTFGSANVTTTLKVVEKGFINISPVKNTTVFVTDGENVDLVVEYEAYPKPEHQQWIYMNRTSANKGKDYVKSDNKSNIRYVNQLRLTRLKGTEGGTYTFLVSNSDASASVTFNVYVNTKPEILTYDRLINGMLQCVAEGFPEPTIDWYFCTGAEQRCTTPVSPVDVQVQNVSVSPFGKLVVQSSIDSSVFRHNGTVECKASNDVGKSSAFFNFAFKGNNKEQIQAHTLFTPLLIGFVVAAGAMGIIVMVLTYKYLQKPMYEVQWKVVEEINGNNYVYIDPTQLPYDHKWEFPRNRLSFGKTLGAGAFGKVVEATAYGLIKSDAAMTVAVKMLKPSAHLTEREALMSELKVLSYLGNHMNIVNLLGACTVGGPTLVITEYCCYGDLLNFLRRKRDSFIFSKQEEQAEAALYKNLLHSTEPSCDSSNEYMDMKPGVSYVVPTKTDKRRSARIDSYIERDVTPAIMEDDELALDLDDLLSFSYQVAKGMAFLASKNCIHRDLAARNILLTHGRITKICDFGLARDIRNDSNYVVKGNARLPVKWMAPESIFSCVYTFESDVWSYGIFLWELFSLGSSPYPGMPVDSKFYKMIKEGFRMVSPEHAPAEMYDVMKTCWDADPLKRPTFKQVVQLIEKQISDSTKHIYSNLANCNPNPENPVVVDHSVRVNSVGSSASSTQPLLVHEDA
Excerpt: as §1, §2

[1] = test system: COS-1 cells (endogenous c-kit); assay: ^125I-SCF^1-164 binding to COS-1 cells transfected with V19.8 alone
Excerpt: To test whether SCF^1-164 is the ligand for c-kit, the cDNA for the entire murine c-kit [Qiu et al., EMBO J., 7, 1003–1011 (1988)] was amplified using PCR from the SCF^1-164 responsive mast cell line MC/9 [Nabel et al., Nature, 291, 332–334 (1981)] with primers designed from the published sequence. The ligand binding and transmembrane domains of human c-kit, encoded by amino acids 1–549 [Yarden et al., EMBO J., 6, 3341–3351 (1987)], were cloned using similar techniques from the human erythroleukemia cell line, HEL [Martin and Papayannopoulou, Science, 216, 1233–1235 (1982)]. The c-kit cDNAs were inserted into the mammalian expression vector V19.8 transfected into COS-1 cells, and membrane fractions prepared for binding assays using either rat or human ^125I-SCF^1-164 according to the methods described in Sections B and C below. […] There was no detectable specific binding of ^125I human SCF^1-164 to COS-1 cells transfected with V19.8 alone. However, COS-1 cells expressing human recombinant c-kit ligand binding plus transmembrane domains (hckit-LT1) did bind ^125I-hSCF^1-164 (Table 17). The addition of a 200 fold molar excess of unlabelled human SCF^1-164 reduced binding to background levels. […]
Two days after transfection, the COS-1 cells were scraped from the dish, washed in PBS, and frozen until use. […] The pellets were clipped off and membrane associated ^125I-SCF^1-164 was quantitated.

B1: rrSCF^1-164: recombinant rat SCF^1-164 from E. coli, also used ^125I-labelled (protein)
chain: QEICRNPVTDNVKDITKLVANLPNDYMITLNYVAGMDVLPSHCWLRDMVTHLSVSLTTLLDKFSNISEGLSNYSIIDKLGKIVDDLVACMEENAPKNVKESLKKPETRNFTPEEFFSIFNRSIDAFKDFMVASDTSDCVLSSTLGPEKDSRVSVTKPFMLPPVA
- CPM Bound, ^125I-SCF + cold (human c-kit (hckit-LT1); 1.6 nM ^125I-SCF^1-164 + 320 nM unlabelled SCF^1-164, V19.8:hckit-LT1): 1,100 CPM
- CPM Bound, ^125I-SCF (human c-kit (hckit-LT1); 1.6 nM ^125I-SCF^1-164, plasmid V19.8:hckit-LT1): 70,000 CPM
- CPM Bound, ^125I-SCF + cold (murine c-kit (mckit-L1); 1.6 nM ^125I-SCF^1-164 + 320 nM unlabelled SCF^1-164, V19.8:mckit-L1): 600 CPM
- CPM Bound, ^125I-SCF (murine c-kit (mckit-L1); 1.6 nM ^125I-SCF^1-164, plasmid V19.8:mckit-L1): 52,700 CPM
- CPM Bound, ^125I-SCF + cold ([1]; 1.6 nM ^125I-SCF^1-164 + 320 nM unlabelled SCF^1-164, V19.8): 550 CPM
- CPM Bound, ^125I-SCF ([1]; 1.6 nM ^125I-SCF^1-164, plasmid V19.8): 1,100 CPM
